Test results from US5308529A, “System for enhancing release of acids from anhydride precursors using esterase catalysts” (Lever Brothers Company, Division of Conopco, Inc., priority 1992, dated 1994).
Each block holds one molecule with its values, some of them ahead of it.

Columns and labels:
Format in all cases: biochemical
[1] = Enzymatic hydrolysis of phthalic anhydride; conditions: 5.0 mM phthalic anhydride; 60.77 EU/g enzyme; room temperature, 50% acetonitrile/water
Protocol: The reaction was carried out at room temperature in a mixed solvent system (50% acetonitrile/water). The buffer and water hardness concentration were identical to that used for the benzoic anhydride systems.

[2] = Enzymatic hydrolysis of benzoic anhydride at pH 5.00 and 10.0 (HPLC); conditions: 0.5 mM benzoic anhydride, 50% acetonitrile/water, room temperature, background hydrolysis subtracted
Protocol: A 50% acetronitrile/water system was used in the presence of 120 ppm water hardness solution (2:1 calcium:magnesium), 0.5 mM benzoic anhydride, and 25 ppm acenaphthylene internal standard. The following buffer systems were utilized:
For pH 5.00: 10 mM sodium citrate, adjusted to pH 5.00 with 0.1 citric acid.
For pH 10.0: 10 mM triethanolamine, adjusted to pH 10.0 with 0.1M hydrochloric acid.
All reactions were run on a 10 mL scale at room temperature for a total of 5.00 min. The benzoic anhydride and internal standard were added from a stock solution which was 1.0M benzoic anhydride and […] acenaphthylene in 100% acetonitrile. A total of 5.0 μL of this stock was used (yielding a 1:2000 dilution) to make each reaction 0.5 mM benzoic anhydride and 25 ppm acenaphthylene. Benzoic acid produced was measured by HPLC (high pressure liquid chromatography) using the acenaphthylene internal standard as a reference.

[3] = Rate of benzoic acid formation from benzoic anhydride by enzymes with esterase activity (HPLC); conditions: 50 μM benzoic anhydride, -10 deg. C., pH 7, 5 mins, 60% glycerol/water
Protocol: Standard reaction conditions for the rate determinations in Table 1 are as follows: 60% glycerol/water (w/w), 120 ppm hardness (2:1 Ca:Mg), 10 mM Triethanolamine adjusted to pH 7 with HCl, and […] benzoic anhydride. All incubations were at -10 deg. centigrade for 5 mins. Benzoic acid produced was measured by HPLC via an internal standard (acenaphthylene).
Various enzymes with esterase activity (lipases, esterases, proteases) were tested against benzoic anhydride to determine the rate of formation of acid. As a control, the effect on benzoic anhydride when no esterase was present (i.e., heat killed lipolase) was also measured.

Rate (uMol Benzoic Acid prod./enzyme unit/min) ([3]; enzyme unit = lipase unit): 1.08 E-1 uMol Benzoic Acid prod./enzyme
B3: Humicola languinosa: lipase ex Humicola lanuginosa (listed under Lipases) (protein, UniProt O59952 23-291, looked up)
Lipase: EVSQDLFNQFNLFAQYSAAAYCGKNNDAPAGTNITCTGNACPEVEKADATFLYSFEDSGVGDVTGFLALDNTNKLIVLSFRGSRSIENWIGNLNFDLKEINDICSGCRGHDGFTSSWRSVADTLRQKVEDAVREHPDYRVVFTGHSLGGALATVAGADLRGNGYDIDVFSYGAPRVGNRAFAEFLTVQTGGTLYRITHTNDIVPRLPPREFGYSHSSPEYWIKSGTLVPVTRNDIVKIEGIDATGGNNQPNIPDIPAHLWYFGLIGTCL

Rate (uMol Benzoic Acid prod./enzyme unit/min) ([3]; control, no unit assay printed): 0 uMol Benzoic Acid prod./enzyme
B4: Heat Killed Lipolase: control: heat killed lipolase, i.e. no esterase present (protein, UniProt O59952 23-291, looked up)
Lipase: B3 Lipase
modifications: heat-inactivated
notes: control: heat killed lipolase, i.e. no esterase present

Rate (uMol Benzoic Acid prod./enzyme unit/min) ([3]; enzyme unit = esterase unit): 6.2 E-3 uMol Benzoic Acid prod./enzyme
B5: Papain: enzyme listed under Proteases in Table 1 (protein, UniProt P00784 134-345, looked up)
Papain: IPEYVDWRQKGAVTPVKNQGSCGSCWAFSAVVTIEGIIKIRTGNLNEYSEQELLDCDRRSYGCNGGYPWSALQLVAQYGIHYRNTYPYEGVQRYCRSREKGPYAAKTDGVRQVQPYNEGALLYSIANQPVSVVLEAAGKDFQLYRGGIFVGPCGNKVDHAVAAVGYGPNYILIKNSWGTGWGENGYIRIKRGTGNSYGVCGLYTSSFYPVKN

More lines, now with the values behind:

B1: Genex 8397: protease; mutant of subtilisin BPN' with MET50→PHE, ASN76→ASP, GLY169→ALA, GLN206→CYS, ASN218→SER (protein, UniProt P00782 108-382, looked up, variant M50F N76D G169A Q206C N218S)
Subtilisin BPN': AQSVPYGVSQIKAPALHSQGYTGSNVKVAVIDSGIDSSHPDLKVAGGASFVPSETNPFQDNNSHGTHVAGTVAALDNSIGVLGVAPSASLYAVKVLGADGSGQYSWIINGIEWAIANNMDVINMSLGGPSGSAALKAAVDKAVASGVVVVAAAGNEGTSGSSSTVGYPAKYPSVIAVGAVDSSNQRASFSSVGPELDVMAPGVSICSTLPGNKYGAYSGTSMASPHVAGAAALILSKHPNWTNTQVRSSLENTTTKLGDSFYYGKGLINVQAAAQ
Rate (μmol BA/EU/min) [1]: 3.03 × 10^-3 μmol BA/EU/min
Reaction over 5.00 min. ([2]; pH 5.00, 60.0 EU/g. enzyme): 22.34%
Reaction over 5.00 min. ([2]; pH 10.0, 3.04 EU/g. enzyme): 63.23%

B2: Lipolase: lipase from Humicola lanuginosa gene expressed in Aspergillus oryzae, commercially available from NOVO Industri A/S (protein, UniProt O59952 23-291, looked up)
Lipase: B3 Lipase
Reaction over 5.00 min. ([2]; pH 5.00, 50.0 EU/g. enzyme): 33.30%
Reaction over 5.00 min. ([2]; pH 10.0, 15.0 EU/g. enzyme): 86.06%
